Source: publication PMC7960628
Blank lines part the entries; values can stand above or below the substance they belong to.

Columns and labels:
Assay in all cases: SEC; gel filtration chromatography of the Ni-NTA purified motif-foldon fusion proteins; trimer
[1] = target: 6xHis-(GPP)5GFQGEK(GPP)5-foldon
[2] = target: 6xHis-(GPP)5GPKGER(GPP)5-foldon
[3] = target: 6xHis-(GPP)5GSQGEK(GPP)5-foldon (mouse | not stated)

stoichiometry N [1]: 3
Substance: 6xHis-(GPP)5GFQGEK(GPP)5-foldon (designed binder)

stoichiometry N [2]: 3
Substance: 6xHis-(GPP)5GPKGER(GPP)5-foldon (designed binder)

stoichiometry N [3]: 3
Substance: 6xHis-(GPP)5GSQGEK(GPP)5-foldon (designed binder)
